Assay results taken from US20200255503A1 (Regeneron, published 2020).

What was measured:
Fel d1 (B-A)-mmH [1] = target: T1, Fel d1 (B-A)-mmH (cat (Felis domesticus)); assay: SPR, mAb captured, Fel d1 (B-A)-mmH injected, 25 C;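 also: rate constants obtained by fitting sensorgrams to a one-to-one binding model, Kd computed as koff over kon, half-life derived from koff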
T1 construct: Expressed in CHO cells; also called rFel d1.mmH; rFel d1-mmH
Description: Antibody-antigen association was monitored for 3 to 5 minutes, and the dissociation of antigen from the captured monoclonal antibody (in running buffer alone at 25° C.) was monitored for 10 or 15 minutes. Kinetic association (kₐ) and dissociation (kₐ) rate constants were determined by processing and fitting the data to a 1:1 binding model using Scrubber 2.0 curve fitting software. Binding dissociation equilibrium constants (KD) and dissociative half-lives (t_{1/2}) were calculated from the kinetic rate constants as: KD=kd/kₐ and t_{1/2}=ln(2)/kₐ.

rFel d1.mFc (dimeric) = rFel d1.mFc (dimeric) (cat (Felis domesticus)); assay: SPR Biacore T200, mAb captured by anti-human Fc, antigen injected
Chain of rFel d1.mFc (dimeric) (cat (Felis domesticus)) (chain, as listed by the source limits assumed): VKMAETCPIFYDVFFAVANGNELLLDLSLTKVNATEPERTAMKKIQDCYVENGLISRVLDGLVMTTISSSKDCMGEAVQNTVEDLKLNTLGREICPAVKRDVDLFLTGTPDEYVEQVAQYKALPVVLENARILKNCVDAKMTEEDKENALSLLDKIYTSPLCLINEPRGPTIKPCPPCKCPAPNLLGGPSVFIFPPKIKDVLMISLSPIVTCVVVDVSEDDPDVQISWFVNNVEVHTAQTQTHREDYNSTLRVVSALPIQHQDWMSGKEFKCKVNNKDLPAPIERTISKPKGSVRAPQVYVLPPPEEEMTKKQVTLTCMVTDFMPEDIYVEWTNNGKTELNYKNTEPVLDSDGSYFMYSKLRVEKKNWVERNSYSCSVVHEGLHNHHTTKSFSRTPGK
Excerpt: (§1) The binding kinetic parameters were obtained by globally fitting the double reference subtracted data to a 1:1 binding model with mass transport limitation using Biacore T200 Evaluation Software, version 1.0.

Fel d1 (B-A)-mmH [2] = target: T1, Fel d1 (B-A)-mmH; assay: as above
Excerpt: as §1

T1 sequence (chain, as listed by the source limits assumed): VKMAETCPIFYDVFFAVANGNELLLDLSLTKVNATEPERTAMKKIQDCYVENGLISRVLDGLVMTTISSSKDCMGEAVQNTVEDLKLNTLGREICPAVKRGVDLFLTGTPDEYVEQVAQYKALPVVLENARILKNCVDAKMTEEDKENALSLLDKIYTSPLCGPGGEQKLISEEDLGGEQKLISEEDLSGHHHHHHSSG

Kd (Fel d1 (B-A)-mmH [1]) | koff (Fel d1 (B-A)-mmH [1]) | kon (Fel d1 (B-A)-mmH [1]) | t1/2 (Fel d1 (B-A)-mmH [1]) | Kd (rFel d1.mFc (dimeric)) | T1/2 (rFel d1.mFc (dimeric)) | koff (rFel d1.mFc (dimeric)) | kon (rFel d1.mFc (dimeric)) | Kd (Fel d1 (B-A)-mmH [2]) | T1/2 (Fel d1 (B-A)-mmH [2]) | koff (Fel d1 (B-A)-mmH [2]) | kon (Fel d1 (B-A)-mmH [2]) | Binder
0.576 nM | 0.000309 s⁻¹ | 537000 M⁻¹ s⁻¹ | 37 min |  |  |  |  |  |  |  |  | H4H2864P (antibody, human IgG4, V domains shown, human IgG4 Fc (prefix H4H)) VH: EVQLVESGGGLAQPGGSLRLSCAASGFTFNNYAMTWVRQAPGKGLDWVSAISDSGRSTFSADSVKGRFTISRDNSKNTLYLQMDSLRAEDTALYYCAKHRNWNYPVFDYWGQGTLVTVSS VL: DIQLTQSPSFLSASVGDRVTITCWASQGISSYLAWYQQKPGKAPKLLIYSASTLQSGVPSRFSGSGSGTEFTLTISSLQPEDFATYYCQQLNSYPFTFGPGTKVDIK
4.69 nM | 0.00205 s⁻¹ | 437000 M⁻¹ s⁻¹ | 6 min |  |  |  |  |  |  |  |  | H4H2797P (antibody, human IgG4, V domains shown, human IgG4 Fc (prefix H4H)) VH: QVQLVESGGGVVLPGRSLRLSCAASGFTFSSYLMYWVRQAPGKGLEWVAVIWYDGSNKFYGDSVKGRFTISRDNSKNTLYLQMNSLRAEDTAVYYCARDNGNSGYEDSWNAFDIWGQGTMVTVSS VL: DIQMTQSPSSLSASVGDRVTITCRASQDIYNYLAWFQQKPGKAPKSLIYAASSLQTGVPSQFSGSGSGTDFTLTISSLQPEDFATYYCQQYNNYPFTFGPGTKVDIK
0.368 nM | 0.000179 s⁻¹ | 487000 M⁻¹ s⁻¹ | 65 min |  |  |  |  |  |  |  |  | H4H2645P (antibody, human IgG4, V domains shown, human IgG4 Fc (prefix H4H)) VH: EVQLVESGGGLVQPGGSLRLSCAASGFTFSTYAMHWVRQAPGKGLEWVSSISGRGRNSDHADSVKGRFTISRDNSKNTLYLQMNSLRAEDTAVYYCARTEYFHHWGQGTLVTVSS VL: DIQMTQSPSSLSASVGDRITITCRASQDINNYLAWFQQKPGKAPKSLIYGASSLQSGVPSKFSGSGSGTDFTLTISSLQPEDFATYYCQQYSSYPFTFGPGTKVDIK
0.402 nM | 0.000521 s⁻¹ | 1.3e+06 M⁻¹ s⁻¹ | 22 min |  |  |  |  |  |  |  |  | H4H2594S (antibody, human IgG4, V domains shown, human IgG4 Fc (prefix H4H)) VH: EVQLVESGGGLVKPGGSLRLSCAASGFTFSDYYMNWIRQAPGKGLEWVSYISSSGSSIYYADSVKGRFTISRDNAKNSLYLLMNSLRAEDTAVYYCARDGKYNSSPGDYWGQGTLVTVSS VL: DIQMTQSPSSLSASVGDRVTIACRASQGISNYLAWFQQKPGKAPKSLIYAASSLQSGVPSKFSGSGSGTDFTLTISSLQPEDFATYYCQQYNSYPLTFGGGTKVEIKR
0.364 nM | 0.000563 s⁻¹ | 1.55e+06 M⁻¹ s⁻¹ | 21 min |  |  |  |  |  |  |  |  | H4H2607B (antibody, human IgG4, V domains shown, human IgG4 Fc (prefix H4H)) VH: EVQLVESGGGLVKPGGSLRLSCAASGFTFSDYYMNWIRQAPGKGLEWISYLSSSGSATYYADSVKGRFTISRDNAKNSLYLQMNSLRAEDTAVYYCARDGKYNTVAGDYWGQGTTVTVSS VL: DIQLTQSPSSLSASVGDRVTITCRASQGIRNDLGWYQQKPGKAPKRLIYAASSLQSGVPSRFSGSGSGTEFTLTISSLQPEDFATYYCLQHNSYPYTFGQGTKVEIKR
0.501 nM | 0.000558 s⁻¹ | 1.12e+06 M⁻¹ s⁻¹ | 21 min |  |  |  |  |  |  |  |  | H4H2597B (antibody, human IgG4, V domains shown, human IgG4 Fc (prefix H4H)) VH: EVQLVESGGGLVQPGGSLRLSCAVSGFTFSNYAMNWVRQAPGKGLEWVSVISDSGRSTYYADSVKGRFTISRDNSKNTLYLQMNSLRAEDTAVYFCAKRYNWNLHYFDYWGQGTTVTVSS VL: EIVLTQSPDFQSVTPKEKVTITCRASQSIGGSLHWYQQKPDQSPKLLIKYASQSFSGVPSRFSGSGSGTDFTLTINSLEAEDAATYYCLQSSSLRTFGQGTKVEIKR
0.388 nM | 0.000486 s⁻¹ | 1.26e+06 M⁻¹ s⁻¹ | 24 min |  |  |  |  |  |  |  |  | H4H2606B (antibody, human IgG4, V domains shown, human IgG4 Fc (prefix H4H)) VH: EVQLVESGGGLVKPGGSLRLSCAASGFTFSDYYMNWIRQAPGKGLEWVSYISSSGNSIYYADSVKGRFTISRDNAKNSLFLQMSSLRAEDTAVYYCARDGRYNDRRRGYYWGQGTLVTVSS VL: EIVMTQSPDFQSVTPKEKVTITCRASQSIGSSLHWYQQKPDQSPKLLIKYASQSFSGVPSRFSGSGSGTDFTLTINSLEAEDAATYYCLQSSSLRTFGQGTKVEIKR
8.21 nM | 0.00188 s⁻¹ | 229000 M⁻¹ s⁻¹ | 6 min |  |  |  |  |  |  |  |  | H4H1616N (antibody, human IgG4, V domains shown, human IgG4 Fc (prefix H4H)) VH: EVELLESGGGLVQPGGSLRLSCAASGFTFSSYAMSWVRQAPGKGLEWVSSISGRVGSTHFADSVKGRFTFSRDNSKNTLYLQLSSLRAEDTAVYYCARSRGAAYFDYWGQGTLVTVSS VL: DIQMTQSPSSLSASVGDRVTITCQANQDISNFLNWYQQRPGKAPNLLIYAASNLETGVPSRFSGSGSGTDFTFTISSLQPEDIATYYCQHYDNFPFTFGPGTKVDIK
1.31 nM | 0.00051 s⁻¹ | 388000 M⁻¹ s⁻¹ | 23 min |  |  |  |  |  |  |  |  | H1M1230N (antibody, V domains shown, chimeric, human variable domains with mouse Fc (prefix H1M)) VH: EVQLVESGGGLVQPGGSLRLSCTASGFIFSNFWMTWVRQAPGKGLEWVANIKQDGSETYCVDSVKGRFTISRDHAKNSLFLQMNSLRAEDTAVYYCARGAGTIYYYGMDVWGQGTTVIVSS VL: DIQMTQSPSSVSASVGDRLTITCRASQDISSWLTWYQQKPGKAPNLLIYAASGLQSGVPSRFSGSGSGTDFTLTISNLQPEDFATYYCQQANSFPLTFGQGTRLEIK
0.544 nM | 0.000166 s⁻¹ | 305000 M⁻¹ s⁻¹ | 70 min |  |  |  |  |  |  |  |  | H2M1233N (antibody, mouse IgG2, V domains shown, chimeric, human variable domains with mouse IgG2 Fc (prefix H2M)) VH: QVVLVESGGGVVQPGRSLRLSCAASGFTFSSYGMHWVRQAPGKGLEWVAVIWYDGSNKYYVDSVKGRFTISRDNSNNTIYLQMNSLRAEDTAVYYCARSLIPVAGTDPIFGYWGQGTLVTVSS VL: DIQMTQSPSTLSASVGDRVTITCRASQSVSSWLAWYQQKPGKAPKLLIFKASGLESGVPFRFSGSGSGTEFTLTISSLQPDDFATYYCQQYNTYSPTFGQGTKVEIK
0.449 nM | 0.000122 s⁻¹ | 272000 M⁻¹ s⁻¹ | 94 min |  |  |  |  |  |  |  |  | H2M1242N (antibody, mouse IgG2, V domains shown, chimeric, human variable domains with mouse IgG2 Fc (prefix H2M)) VH: EVQLVESGGGLVRPGGSLRLSCAASGFTFTSYAMNWVRQAPGKGLEWVSSISSYSSYIYIADSVKGRFTLSRDNAKNSLYLQMHSLRPEDTAVYFCAREGYSAYSYFDFWGRGTLVTVSS VL: DIQMTQSPSTLSASVGDRVTITCRASQSVISWLAWYQQKPGKAPKLLIHRASSLESGVPSRFSGSGSGTEFTLTISGLQPDDFATYYCQQYNTYFPTFGQGTKVEVK
0.458 nM | 0.000165 s⁻¹ | 359000 M⁻¹ s⁻¹ | 70 min |  |  |  |  |  |  |  |  | H2M1237N (antibody, mouse IgG2, V domains shown, chimeric, human variable domains with mouse IgG2 Fc (prefix H2M)) VH: QVVLVESGGGVVQPGRSLRLSCAASGFTFSSYGMHWVRQAPGKGLEWVAVIWYDGSIKYYADSVKGRFTISRDNSNNTIYLQMNSLRAEDTAVYYCARALIPVAGTDPIFGYWGQGTLVTVSS VL: DIQMTQSPSTLSASVGDRVTITCRASQSVSSWLAWYQQKPGKAPKLLIFKTSGLESGVPFRFSGSGSGTEFTLTISSLQPDDFATYYCQQYNTYSPTFGQGTKVEIK
0.924 nM | 0.000228 s⁻¹ | 247000 M⁻¹ s⁻¹ | 51 min |  |  |  |  |  |  |  |  | H4H2636B (antibody, human IgG4, V domains shown, human IgG4 Fc (prefix H4H)) VH: EVQLVESGGGLVQPGGSLRLSCAASGFTFSSYAMSWVRQAPGKGLEWVSAISGRGYNADYADSVKGRFTISRDNSKNTLYLQMNSLRAEDTAVYYCAKLEYFDYWGQGTTVTVSS VL: DIQLTQSPSTLSASVGDRVTITCRASQSISSWLAWYQQKPGKAPKLLIYKASSLESGVPSRFSGSGSGTDFTLTISSLRPEDFATYYCQQYNSYPLTFGGGTKVEIKR
0.912 nM | 0.000235 s⁻¹ | 257000 M⁻¹ s⁻¹ | 49 min | 0.0978 nM | 254 min | 4.55e-05 s⁻¹ | 466000 M⁻¹ s⁻¹ | 0.912 nM | 49 min | 0.000235 s⁻¹ | 257000 M⁻¹ s⁻¹ | H4H2636P (antibody, human IgG4, V domains shown, human IgG4 Fc (prefix H4H); also called REGN1909) VH: EVQLVESGGGLVQPGGSLRLSCAASGFTFSSYAMSWVRQAPGKGLEWVSAISGRGYNADYADSVKGRFTISRDNSKNTLYLQMNSLRAEDTAVYYCAKLEYFDYWGQGTLVTVSS VL: DIQMTQSPSTLSASVGDRVTITCRASQSISSWLAWYQQKPGKAPKLLIYKASSLESGVPSRFSGSGSGTDFTLTISSLRPEDFATYYCQQYNSYPLTFGGGTKVEIK
0.558 nM | 0.000232 s⁻¹ | 415000 M⁻¹ s⁻¹ | 50 min |  |  |  |  |  |  |  |  | H2M1236N (antibody, mouse IgG2, V domains shown, chimeric, human variable domains with mouse IgG2 Fc (prefix H2M)) VH: QVQLQESGPGLVKPSETLSLTCTVSGGSISNYYWSWIRQPPGKGLEWIGYIYYSGRTNYNPSLKSRVTISVDTSKNQFSLKLRSVTAADTAVYYCARHRITRTADSFDYWGQGTLVTVSS VL: DIQMTQSPSSLSASVGDRVTITCQASQDITNYLNWYQQKPGKAPKLLIYDASNLETGVPSRFSGSGSGTDFTFTISSLQPEDVATFYCHQYGDLPYTFGQGTKLEIK
5.58 nM | 0.00142 s⁻¹ | 254000 M⁻¹ s⁻¹ | 8 min |  |  |  |  |  |  |  |  | H1M1234N (antibody, V domains shown, chimeric, human variable domains with mouse Fc (prefix H1M)) VH: QVQLQQSGPGLVKSSQTLSLTCAISGDSVSSNSVAWNWIRQSPSRGLEWLGRTYYRSKWYNDYAVSVKSRININPDTSKNHFSLQLNSVTPEDTAVYFCARAWNWYYLDYWGQGTLVTVSS VL: not shown
0.144 nM | 0.000258 s⁻¹ | 1.79e+06 M⁻¹ s⁻¹ | 45 min | 0.0316 nM | 159 min | 7.25e-05 s⁻¹ | 2.3e+06 M⁻¹ s⁻¹ | 0.187 nM | 46 min | 0.000251 s⁻¹ | 1.34e+06 M⁻¹ s⁻¹ | H4H1232N (antibody, human IgG4, V domains shown, human IgG4 Fc (prefix H4H); also called REGN1908) VH: EVQLVESGGGLVKPGGSLRLSCAASGFTFRNYNINWVRQAPGKGLEWVSLISGSSSYIYYADSVKGRFTVSRDNAKNSLYLQMNSLRAEDTAVYYCARRTLSYYVMDVWGQGTTVTVSS VL: DIQVTQSPSPLSASVGDRVTITCRASQGISNYLAWYQQKPGRVPQLLIYAASTLQSGVPSRFSGSGSGTDFTLTISSLQPEDVATYYCQKYNSAPYTFGQGTKLEIK
0.331 nM | 0.000112 s⁻¹ | 337000 M⁻¹ s⁻¹ | 104 min |  |  |  |  |  |  |  |  | H1M1241N (antibody, V domains shown, chimeric, human variable domains with mouse Fc (prefix H1M)) VH: EVQLVESGGGLVKPGGSLRLSCAASGFTFSSYSMNWVRQAPGKGLEWVSSISSRSSYIYYADSVKGRFTISRDNAKNSLYLQMNSLRAEDTAVYYCARDHIVVVPGASYYYYGMDVWGQGTTVTVSS VL: DIQMTQSPSSLSASVGDRVTITCRASQGIRNDLGWYQQKPGKAPKRLISAASSLQSGVPSRFSGSGSGTEFTLTISSLQPEDFATYYCLQHNSYPLTFGGGTKVEIK
